# Test results published in patent US20230235073A1.
# Key:
# [1] = molecular target: human CD36 on cells overexpressing human CD36 (human) (UniProt P16671); assay: FACS on cells overexpressing human CD36, % of Binding
# [2] = molecular target: human CD36 recombinant protein (Sino Biological, reference 10752-H08H) (human) (UniProt P16671); assay: ELISA, plate coated with human CD36, OD630, panel 'Coating: human CD36'
# [3] = molecular target: mouse CD36 recombinant protein (Sino Biological, reference 50422-M08H) (mouse) (UniProt Q08857); assay: ELISA, plate coated with mouse CD36, OD630, panel 'Coating: mouse CD36'
# Sequence of mouse CD36 recombinant protein (Sino Biological, reference 50422-M08H) (mouse) (Q08857 30-439 limits assumed, stated change not applied): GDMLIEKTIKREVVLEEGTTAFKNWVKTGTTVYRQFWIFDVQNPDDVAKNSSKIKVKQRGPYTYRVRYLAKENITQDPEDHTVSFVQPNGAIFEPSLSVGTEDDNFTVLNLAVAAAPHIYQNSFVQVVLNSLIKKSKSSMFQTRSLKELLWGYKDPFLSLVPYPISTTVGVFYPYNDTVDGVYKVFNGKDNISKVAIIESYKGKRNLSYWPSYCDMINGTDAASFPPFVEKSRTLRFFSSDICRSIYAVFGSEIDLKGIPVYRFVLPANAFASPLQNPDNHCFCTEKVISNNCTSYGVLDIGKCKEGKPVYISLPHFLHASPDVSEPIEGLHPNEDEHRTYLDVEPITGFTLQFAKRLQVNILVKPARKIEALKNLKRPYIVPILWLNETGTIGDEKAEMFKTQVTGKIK
# [4] = molecular target: human CD36 recombinant protein (Sino Biological, reference 10752-H08H) (human) (UniProt P16671); assay: SPR Biacore T200, antibody captured on anti-mouse IgA, CD36 analyte, 2-state model
# [5] = molecular target: human CD36 recombinant protein (Sino Biological, reference 10752-H08H) (human) (UniProt P16671); assay: SPR Biacore T200, antibody captured on anti-mouse IgA, CD36 analyte, bivalent model
# [6] = molecular target: human CD36 recombinant protein (Sino Biological, reference 10752-H08H) (human) (UniProt P16671); assay: SPR Biacore T200, antibody captured on anti-mouse IgA, CD36 analyte 3.3-333 nM, 1-to-1 model
# Sequence of human CD36 recombinant protein (Sino Biological, reference 10752-H08H) (human) (P16671 30-439 limits assumed): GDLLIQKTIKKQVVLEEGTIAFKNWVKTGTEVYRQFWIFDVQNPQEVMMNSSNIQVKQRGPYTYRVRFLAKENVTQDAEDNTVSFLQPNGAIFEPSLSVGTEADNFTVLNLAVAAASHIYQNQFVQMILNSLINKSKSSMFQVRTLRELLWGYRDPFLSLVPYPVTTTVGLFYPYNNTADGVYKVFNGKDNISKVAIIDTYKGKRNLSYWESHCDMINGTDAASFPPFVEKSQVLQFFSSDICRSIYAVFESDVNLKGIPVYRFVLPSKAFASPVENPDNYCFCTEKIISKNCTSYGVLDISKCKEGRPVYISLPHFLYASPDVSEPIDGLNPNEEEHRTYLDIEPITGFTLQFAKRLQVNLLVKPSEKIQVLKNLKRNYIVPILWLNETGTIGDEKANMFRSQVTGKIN
# Sequence of human CD36 on cells overexpressing human CD36 (human) (P16671 2-472 limits assumed): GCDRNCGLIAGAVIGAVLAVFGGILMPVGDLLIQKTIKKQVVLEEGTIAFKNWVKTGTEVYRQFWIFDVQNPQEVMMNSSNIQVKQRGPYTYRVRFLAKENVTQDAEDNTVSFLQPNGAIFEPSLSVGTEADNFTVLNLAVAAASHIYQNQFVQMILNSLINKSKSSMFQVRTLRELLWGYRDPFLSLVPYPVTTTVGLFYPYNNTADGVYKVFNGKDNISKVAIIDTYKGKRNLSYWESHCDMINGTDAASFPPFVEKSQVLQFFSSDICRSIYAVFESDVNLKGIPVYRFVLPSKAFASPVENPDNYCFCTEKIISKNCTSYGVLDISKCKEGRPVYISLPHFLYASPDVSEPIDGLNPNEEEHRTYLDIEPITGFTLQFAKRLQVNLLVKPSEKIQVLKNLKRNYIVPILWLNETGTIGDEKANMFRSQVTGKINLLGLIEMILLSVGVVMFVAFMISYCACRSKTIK
substance,measurement,setting,value
"commercial neutralizing monoclonal anti-CD36 antibody JC63.1 (CAYMAN, CAY-10009893-500)",EC50 (read off the curve),[1],0.03 nM
same,EC50 (read off the curve),[2],1 to 2 nM
same,EC50 (read off the curve),[3],1 nM
same,Kd,[4],7.61 nM
same,ka1,[4],86900 M⁻¹ s⁻¹
same,ka2,[4],0.000572 s⁻¹
same,kd1,[4],0.0018 s⁻¹
same,kd2,[4],0.000332 s⁻¹
same,KD1,[5],76.5 nM
same,KD2,[5],956 nM
same,ka1,[5],27200 M⁻¹ s⁻¹
same,ka1 (second column so headed),[5],413 M⁻¹ s⁻¹
same,ka2,[5],5.5e-05 1/RUs
same,kd1,[5],0.00206 s⁻¹
same,kd2,[5],0.000399 s⁻¹
same,Kd,[6],4.71 nM
same,koff,[6],0.00196 s⁻¹
same,kon,[6],418000 M⁻¹ s⁻¹
